Test results reported in article PMC9079946, “Enzyme-free ultrasensitive fluorescence detection of epithelial cell adhesion molecules based on a toehold-aided DNA recycling amplification strategy†”.

What was measured:
[1] = target: T1, EpCAM (UniProt P16422 24-265); test: strand a displacement with toehold-aided fluorescence amplification; 30 nM aptamer/strand a, 50 ng/mL EpCAM, 10 mM Mg2+; strands b, c, d, e 100 nM; 20 mM Tris-HCl, 100 mM NaCl, 10 mM KCl, 10 mM MgCl2, pH 7.5, 37 °C, 30 min; conditions: protein: commercial; partial duplex: 15 nt strand a hybridised to 48 nt aptamer; single-stranded 5' and 3' aptamer overhangs
T1 sequence: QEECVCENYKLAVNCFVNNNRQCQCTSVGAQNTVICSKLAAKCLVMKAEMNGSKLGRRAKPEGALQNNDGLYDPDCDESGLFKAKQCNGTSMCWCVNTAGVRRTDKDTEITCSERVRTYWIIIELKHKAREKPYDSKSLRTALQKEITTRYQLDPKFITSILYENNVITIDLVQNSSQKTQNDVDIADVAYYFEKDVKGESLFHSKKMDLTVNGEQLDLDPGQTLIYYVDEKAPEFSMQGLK

[2] = target: CD86 (UniProt P42081 24-247); test: strand a displacement with toehold-aided fluorescence amplification; 100 ng/mL CD86; slight fluorescence change only; 20 mM Tris-HCl, 100 mM NaCl, 10 mM KCl, 10 mM MgCl2, pH 7.5, 37 °C, 30 min; conditions: protein: commercial; partial duplex: 15 nt strand a hybridised to 48 nt aptamer; single-stranded 5' and 3' aptamer overhangs
CD86, sequence (P42081 24-247): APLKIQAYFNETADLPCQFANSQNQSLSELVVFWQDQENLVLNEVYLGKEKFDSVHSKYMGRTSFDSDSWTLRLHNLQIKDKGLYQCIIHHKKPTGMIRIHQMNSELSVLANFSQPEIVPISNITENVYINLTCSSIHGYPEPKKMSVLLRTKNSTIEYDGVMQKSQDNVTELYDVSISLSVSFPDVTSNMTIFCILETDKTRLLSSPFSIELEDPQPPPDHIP

B1: EpCAM aptamer / strand a duplex (mixed)
DNA 1: CACTACAGAGGTTGCGTCTGTCCCACGTTGTCATGGGGGGTTGGCCTG
DNA 2: AGACGCAACCTCTGT
binding result [1]: binds | binding result [2]: no binding
